How the values were obtained:
Experiment in all cases: SPR
[1] = target: alpha-synuclein (aSyn) WT (human, UniProt P37840 1-140)
[2] = target: aSyn dNAC (UniProt P37840 1-140, del61-95)
[3] = target: aSyn dCterm (UniProt P37840 1-95, del96-140)

Binder | binding result [1] | binding result [2] | binding result [3] | Kd [1]
UUACCGUUACCGUUACCGUUACCG (ssRNA) [G4mt biotin] | no binding |  |  | 
UUAGGGUUAGGGUUAGGGUUAGGG (structured_RNA) [G4tr biotin] |  | binds | binds | 3.63 ± 0.63 µM

From publication doi:10.1101/2023.07.10.548322
